Article PMC5612953, “Stable MOB1 interaction with Hippo/MST is not essential for development and tissue growth control” (Nature Communications, 2017)
Changes are numbered by the printed parent chain. Names and notes keep the numbering of the source.

T1: phospho-MOB1(K104E/K105E), full length, recombinant (human, UniProt Q9H8S9 1-216, K104E | K105E, phosphorylated in vitro by MST2 (residues 2-308); the paper names Thr12 and Thr35 as the MST1/2 phosphorylation sites of MOB1)
T1 construct: human MOB1A, full length; source: E. coli, purified (Ni-NTA), then phosphorylated in vitro by MST2 (2-308)
T1 sequence (looked up): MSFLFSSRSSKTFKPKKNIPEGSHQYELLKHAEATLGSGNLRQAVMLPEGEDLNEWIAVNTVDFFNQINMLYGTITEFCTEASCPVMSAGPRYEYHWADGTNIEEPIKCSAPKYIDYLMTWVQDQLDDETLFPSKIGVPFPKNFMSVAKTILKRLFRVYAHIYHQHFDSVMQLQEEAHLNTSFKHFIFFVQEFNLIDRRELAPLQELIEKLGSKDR

T2: non-phosphorylated full-length MOB1A wild-type (human, UniProt Q9H8S9 1-216)
T2 construct: human MOB1A, full length; pET28a vector; also called unphosphorylated full-length MOB1; non-phosphorylated MOB1; source: E. coli, purified as MOB1A (33-216) (Ni-NTA)
T2 sequence (looked up): T1 sequence (looked up) with E104K, E105K

T3: unphosphorylated full-length MOB1A(K104E/K105E), recombinant (human, UniProt Q9H8S9 1-216, K104E | K105E)
T3 construct: human MOB1A, full length; also called Unphosphorylated MOB1(K104E/K105E); MOB1(K104E/K104E); source: E. coli, purified as MOB1A (33-216) (Ni-NTA)
T3 sequence (looked up): T1 sequence (looked up)

T4: phospho-MOB1(K104E/K105E), full length, recombinant (human, UniProt Q9H8S9 1-216, K104E | K105E, phosphorylated in vitro by MST2 (residues 2-308); the paper names Thr12 and Thr35 as the MST1/2 phosphorylation sites of MOB1)
T4 sequence: T1 sequence (looked up)

T5: unphosphorylated full-length MOB1A(K104E/K105E), recombinant (human, UniProt Q9H8S9 1-216, K104E | K105E)
T5 sequence: T1 sequence (looked up)

T6: human MOB1A (residues 33-216) (human, UniProt Q9H8S9 33-216)
T6 construct: human MOB1A, residues 33-216; modified pET28a vector; a zinc is associated with MOB1 in the structure; also called MOB1 (33-216); MOB1A (33-216); source: E. coli BL21(DE3), purified (Ni-NTA; complex by Superdex 200)
T6 sequence (looked up): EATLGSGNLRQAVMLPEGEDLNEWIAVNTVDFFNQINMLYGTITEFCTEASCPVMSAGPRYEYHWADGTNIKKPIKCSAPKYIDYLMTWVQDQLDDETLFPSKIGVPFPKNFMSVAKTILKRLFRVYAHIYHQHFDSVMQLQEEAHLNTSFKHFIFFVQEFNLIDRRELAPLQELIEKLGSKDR

T7: human MST2 (residues 2-392) (human, UniProt Q13188 2-392)
T7 construct: human MST2, residues 2-392; also called MST2 (2-392); source: E. coli BL21(DE3), purified (Ni-NTA)
T7 sequence (looked up): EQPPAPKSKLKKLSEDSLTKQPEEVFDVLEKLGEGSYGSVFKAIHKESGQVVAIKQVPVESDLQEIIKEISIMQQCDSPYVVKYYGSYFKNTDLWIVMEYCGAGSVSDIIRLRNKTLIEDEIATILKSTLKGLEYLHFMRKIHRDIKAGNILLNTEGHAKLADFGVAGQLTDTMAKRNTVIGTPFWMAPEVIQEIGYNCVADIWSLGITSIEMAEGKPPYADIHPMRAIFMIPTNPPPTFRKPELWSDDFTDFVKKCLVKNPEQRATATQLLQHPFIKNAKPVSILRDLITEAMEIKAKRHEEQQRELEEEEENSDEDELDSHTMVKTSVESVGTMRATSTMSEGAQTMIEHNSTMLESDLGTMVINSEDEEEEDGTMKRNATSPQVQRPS

B1: human NDR2 (residues 25-88), N-terminal regulatory domain (NTR) (domain or fragment, UniProt Q9Y2H1 25-88, looked up)
chain: KLTLENFYSNLILQHEERETRQKKLEVAMEEEGLADEEKKLRRSQHARKETEFLRLKRTRLGLD
notes: human NDR2, residues 25-88 (NTR); also called NDR2 (25-88); NTR of NDR2; source: E. coli BL21(DE3), purified (Ni-NTA)
B2: human LATS1 (residues 618-697) (domain or fragment, UniProt O95835 618-697, looked up)
chain: RKNKKDEERRESRIQSYSPQAFKFFMEQHVENVLKSHQQRLHRKKQLENEMMRVGLSQDAQDQMRKMLCQKESNYIRLKR
notes: human LATS1, residues 618-697; also called LATS1 (618-697); source: E. coli BL21(DE3), purified (Ni-NTA)
B3: recombinant full-length MOB1A(D63V) (natural protein, human, UniProt Q9H8S9 1-216, looked up)
chain: T1 sequence (looked up) with D63V, E104K, E105K
notes: human MOB1A, full length; also called MOB1(D63V); source: E. coli, purified as MOB1A (33-216) (Ni-NTA)

Columns and labels:
[1] = target: T1, phospho-MOB1(K104E/K105E), full length, …; experiment: ITC; 25 °C, ITC200; 25 mM HEPES pH 7.5, 200 mM NaCl, 1 mM EDTA; ~240 μM MOB1A injected (20 x 2 μl) into ~24 μM NDR1, NDR2, LATS1 or LATS2 fragment in the cell; single-site model; conditions: both partners purified
[2] = target: T2, non-phosphorylated full-length MOB1A …; experiment: as above; conditions: both partners purified
[3] = target: T3, unphosphorylated full-length …; experiment: as above; conditions: both partners purified
[4] = target: T4, phospho-MOB1(K104E/K105E), full length, …; experiment: ITC; phosphorylated MOB1
[5] = target: T5, unphosphorylated full-length …; experiment: ITC
[6] = target: B3; experiment: SEC; purified full-length MOB1 proteins incubated with NDR2 (25-88), LATS1 (618-697) or MST2 (2-392) at 4 °C for 20 min in assembly buffer (20 mM Tris pH 8.0, 200 mM NaCl, 5 mM DTT); HiLoad 16/60 Superdex 200; fractions by SDS-PAGE and Coomassie; for LATS1 MOB1A was first phosphorylated by MST2 (2-308); conditions: both partners purified
[7] = target: T6, human MOB1A (residues 33-216); experiment: crystal structure; MOB1A (33-216) and NDR2 (25-88) incubated 1:1 at 4 °C, complex purified on Superdex 200; crystals at 14 °C in 17% PEG 3350, 0.1 M HEPES pH 7.5, 150 mM magnesium chloride; 2.10 Å; conditions: both partners purified
[8] = target: T1, phospho-MOB1(K104E/K105E), full length, …; experiment: SEC; purified full-length MOB1 proteins incubated with NDR2 (25-88), LATS1 (618-697) or MST2 (2-392) at 4 °C for 20 min in assembly buffer (20 mM Tris pH 8.0, 200 mM NaCl, 5 mM DTT); HiLoad 16/60 Superdex 200; fractions by SDS-PAGE and Coomassie; for LATS1 MOB1A was first phosphorylated by MST2 (2-308); conditions: both partners purified
[9] = target: T7, human MST2 (residues 2-392); experiment: as above; conditions: both partners purified

Binder: B1
- binding result [1]: binds
- binding result [2]: binds
- binding result [3]: binds
- Kd [4]: 0.532 µM
- Kd [5]: 16.9 µM
- binding result [6]: binds
- binding result [7]: binds

Binder: B2
- binding result [8]: binds

Binder: B3
- binding result [9]: binds
